The values that follow come from US5866124.

In this assay the target is murine anti-HMW-MAA monoclonal antibody 763.74. The assay can be described thus: ELISA on plates coated with MAb 763.74, culture supernatant, detected with alkaline phosphatase-conjugated anti-human γ.

B1: chimeric antiidiotypic monoclonal antibody MK2-CHγ1 (antibody, V domains shown)
VH: LQESGGGLVQPGGSRKLSCAASGFTFSSFGMHWVRQAPEKGLEWVAYISSDSSNIYYADTVKGRFTISRDNPKNTLFLQMTSLRSEDTAMYYCARSNYVGYHVRWYFDVWGQGTTVT
VL: QLTQSPASLAVSLGQRVTISCRASESVEYYGSSLMQWYQQKPGQPPKLLIYAASNVESGVPARFSGSGSGTDFSLNIHPVEEDDIAMYFCQQSRKIPYTFGGGTKLEI
Take B1: the A405 was determined as 0.78 A405.
